Laboratory results from PMC10542344 (2023).
Changes are numbered by the printed parent chain.

B1: BDG11.001 (clone 11.4C_11.001 as soluble human IgG1) (antibody, V domains shown)
VH: EVQLVQSGAEVKKPGESLKISCKGSGYSFTSYWIGWVRQMPGKGLEWMGIIYPSDSDTRYSPSFQGQVTISADKSISTAYLQWSSLKASDTAMYYCARYPNYGAFDIWGQGTMVTVSS
VL: EIVLTQSPATLSLSPGERATLSCRASQSVWSYLAWYQQKPGQAPRLLIYDASNRATGIPARFSGSGSGTDFTLTISSLEPEDFAVYYCQQYFYWGWPFGQGTKLEIK
B2: BDG11.007 (human IgG1) (antibody, V domains shown)
VH: B1 VH
VL: B1 VL with Y93N
B3: BDG11.006 (human IgG1) (antibody, V domains shown)
VH: B1 VH
VL: B1 VL with W94N
B4: BDG11.004 (human IgG1) (antibody, V domains shown)
VH: B1 VH
VL: B1 VL with W30S
B5: BDG11.003 (human IgG1) (antibody, V domains shown)
VH: B1 VH
VL: B1 VL with W30F

Biological target: T1, human IL-17A (recombinant) (human, UniProt Q16552 24-155)
T1 sequence (Q16552 24-155): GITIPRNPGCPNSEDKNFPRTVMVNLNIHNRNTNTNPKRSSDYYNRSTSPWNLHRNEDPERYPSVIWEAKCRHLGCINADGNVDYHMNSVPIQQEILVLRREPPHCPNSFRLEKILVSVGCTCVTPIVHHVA
Assay: SPR

koff	Binder
0.000634 s⁻¹	B1

Biological target: T1, human IL-17A (recombinant)
Assay: SPR
Remark: another data set of the same source

koff	Binder
0.0045 s⁻¹	B2
0.0009 s⁻¹	B3
0.00221 s⁻¹	B4
0.000641 s⁻¹	B5

Biological target: T1, human IL-17A (recombinant)
Assay: SPR
Remark: another data set of the same source

Kd	Binder
2.61 nM	B2
0.697 nM	B3
8.69 nM	B4
0.935 nM	B5
